Assay results taken from the supplement of paper PMC9170038.

What was measured:
[1] = tested on: K4 kissing-loop RNA reporter; experiment: apparent KD of K4 kissing-loop reporter; higher = weaker reporter binding; settings: Eterna round: R107;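 further: bound reporter read as fluorescence of individual clusters on recovered sequencing chips by microscopy, with normalized cluster intensities fitted with a binding model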
Procedure: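 RNA-MaP round R107: designed RNA switches with theophylline, tryptophan, arginine or FMN aptamers are transcribed on-chip within common flanks. They are titrated with a labelled K4 kissing-loop RNA reporter in RNA-MaP buffer (100 mM Tris pH 7.5, 80 mM KCl, 4 mM MgCl2), without ligand or with the indicated ligand. Median apparent KD per design.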

MS2 coat protein = experiment: apparent KD of MS2 coat protein; designed switch direction (-1 OFF switch, 1 ON switch): -1; higher = weaker reporter binding
Method in brief: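 On Illumina chips, designed RNA switches with common flanks were made by stalled E. coli RNA polymerase. Titrations with SNAP-549-labelled MS2 coat protein, doubling from 0.7 or 1.5 nM to 3 µM, were done with no input, with 200 uM small-molecule ligand, or with an oligonucleotide input. Apparent KD is the median per design over clusters, from curve fits of normalised cluster fluorescence.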

[2] = input ligand: theophylline 20 uM
[3] = input ligand: tryptophan 2.4 mM
[4] = input ligand: microRNA oligo, concentration not stated
[5] = Eterna round: R95, input ligand: FMN 200 uM
[6] = Eterna round: R95, input ligand: microRNA oligo, concentration not stated
[7] = Eterna round: R95, input ligand: none

Sequence	apparent KD of K4 kissing-loop reporter ([1]; input ligand: FMN 200 uM) [nM]	apparent KD of K4 kissing-loop reporter ([1]; input ligand: arginine 13.2 mM) [nM]	apparent KD of K4 kissing-loop reporter ([1]; input ligand: none) [nM]	apparent KD of K4 kissing-loop reporter [1, 2] [nM]	apparent KD of K4 kissing-loop reporter [1, 3] [nM]	apparent KD of MS2 coat protein (MS2 coat protein; input ligand: FMN 200 uM) [nM]	apparent KD of MS2 coat protein (MS2 coat protein; [4]) [nM]	apparent KD of MS2 coat protein (MS2 coat protein; input ligand: none) [nM]	apparent KD of MS2 coat protein (MS2 coat protein; [5]) [nM]	apparent KD of MS2 coat protein (MS2 coat protein; [6]) [nM]	apparent KD of MS2 coat protein (MS2 coat protein; [7]) [nM]
GGUGUUGUUUGUGCCGUCUUCCUCGUUCCUCGAGGACCGGUACGGCCGCCACUCGAGUGAUGUUUGGGUAGCGAUCCCUGUUAGU [Bdazzled - #10 Exc. Tryptophan A]	695	541	647	602	582	–	–	–	–	–	–
UGGCGAGUGAUGUUCGUUGUUGUAGUGUGUCGAGGACCGGUACGGCCGCCACUCGGGUUGGUUGUUGUUGUUGUUGUUGUUGUUG [First Shot]	218	187	196	292	101	–	–	–	–	–	–
AUUUUAUUAACUGAUACCAGACUUAAUGAAUUGUAAAUUACUAGUGAUGUUAGUGAUUCUGUCCCUUGGCAGCAGUAUUUAUUAA [JR_ExcTheophyB_Sub012]	129	146	139	141	118	–	–	–	–	–	–
AGGCGGCAUGAUUGACUGAAAAGAAAUCAACGAGGACCGGUACGGCCGCCACUCGAACACCAGUGAUGUUGGUAUGGGAUAACCC [Exclusion Tryptophan A GF 19]	178	188	184	173	159	–	–	–	–	–	–
UGGAUAUAGUGAUGUUAUAUAGAGAUGGAUACCAGUUAAGAGAAUAGCCCUUGGCAGCCGAAAGAAGUAUCAUUAGAGAAGAAUG [ExTheophyl.Ad]	261	183	239	194	195	–	–	–	–	–	–
AAGUCUCGUUAAUUCGUGGUUUCGAUCGAUACCAGUAGCGAGAGUUACCCUUGGCAGCGAAAUGAGUGAUGUUCAUGAAAGAAGA [KL-XTheoA10]	65.1	101	64.6	107	60	–	–	–	–	–	–
GCGGGCGGCUGAAGGAGCGGGCGGGCCCGAGUGAUGUUCGGGUGGGCCGUGAGGCCCGGAGCCCAGGUAGGUCGCGGUUCCGUCC [#2 Same State - Arginine B Attempt #19 (HarryS)]	162	113	126	170	147	–	–	–	–	–	–
AAAUCGUUCAGAAGGAGCGUGGUAUAAUCAUUAAUAUUUAUUACGAGUGAUGUUCGUAAUUCACAGGUAGGUCGCUGAUCGAUAA [JR_SSArginiB_Sub006]	88.6	94.6	86	99.8	82.7	–	–	–	–	–	–
UUUUUAAUCGCAGAUACCAGUCCAGAAUAAAUACUAUAGUGAUGUUAUAUAUAAGGAAAGGACCCUUGGCAGCUGUACUAUAUUU [AstrosSsTheB#8]	411	322	392	245	346	–	–	–	–	–	–
AGUAGGAAACUACAAUCCUCUCUUACUGAAGGAGCGCGUGAAAACGCAGGUAGGUCGCAGGAUUUGAGAGUGAUGUUCUCAUUAA [Ex Arginine A K4 16]	201	294	231	277	174	–	–	–	–	–	–
GUGCAAAGCACCGGCACGAGCAGCCUAAAGGAGGAUAUGACGAAAGUCAGAAGGUCUAGUGAUGUUAGGCCUUGCUUGAGUCGAA [Omei KL FMN A Exc B v3]	288	278	402	405	327	–	–	–	–	–	–
UGUAUGUGAUGUGAUACCAGUGAAGAGCCAGUGAUGUUGGUAGAACUGGUAUAUAAAUAACACCCUUGGCAGCACAGUCACGUAC [whbob_Ex_Theo_B_sa100]	305	241	297	279	242	–	–	–	–	–	–
GUAUCAGUGAUGUUGAUAGGCGAGCGGGAUACCAGCCAAGACUCAGGCCCUUGGCAGCCCACAUAUCCCACGUAGAUAGUAGCUC [Same State - Theophylline A (Freestyle 16)]	137	105	128	139	123	–	–	–	–	–	–
CGCAGUGAUGUUGCGAGUAGAUACAGGGAAGGAGCGCCGUAGUAGGCAGGUAGGUCGCCCACGCAGUGAUGUUGCGUCAUAGGGU [Exclusion Arginine A GF 5]	104	91.8	97.1	116	87.6	–	–	–	–	–	–
UGAUACCAGACGGCCGCCACUCCCGCAGGUCAAAGACCUGCGAAGAAGGUUCUUUAGUGAUGUUGGAGGACCGGGUCUGGUAUCU [FiskerMod 21 - Jieux - Exclusion - Tryptophan B]	735	312	744	417	523	–	–	–	–	–	–
CUGGUGCUGAUGCGGUGGCCGGUGGUCGUGCGAGGACCGGUACGGCCGCCACUCGCAUGAGUGAUGUUCAUGUGUCGUCGUCGUC [whbob_EX_Tryp_A_t1]	212	134	181	176	217	–	–	–	–	–	–
AGAAGAUAUCGUGAUACCAGACCGCGGAGAGGCCGGAAGAGGGUAGUGAUGUUGCAUGCAGUCCCUUGGCAGCACUGACAGUAUU [theeternabot_sameState_KL_Theo_B_40]	754	287	694	539	601	–	–	–	–	–	–
ACCCUGGGUCCCGAAAGGGACCCAGGGAGUGAGGAUAUGUGGAAACACAGAAGGCACAGCACAGUGAUGUUGUGCGACGAAAGUC [#02 K4 FMN A Same State]	566	97.5	401	175	217	–	–	–	–	–	–

Sequence	apparent KD of K4 kissing-loop reporter ([1]; input ligand: FMN 200 uM) [nM]	apparent KD of K4 kissing-loop reporter ([1]; input ligand: arginine 13.2 mM) [nM]	apparent KD of K4 kissing-loop reporter ([1]; input ligand: none) [nM]	apparent KD of K4 kissing-loop reporter [1, 2] [nM]	apparent KD of K4 kissing-loop reporter [1, 3] [nM]	apparent KD of MS2 coat protein (MS2 coat protein; input ligand: FMN 200 uM) [nM]	apparent KD of MS2 coat protein (MS2 coat protein; [4]) [nM]	apparent KD of MS2 coat protein (MS2 coat protein; input ligand: none) [nM]	apparent KD of MS2 coat protein (MS2 coat protein; [5]) [nM]	apparent KD of MS2 coat protein (MS2 coat protein; [6]) [nM]	apparent KD of MS2 coat protein (MS2 coat protein; [7]) [nM]
GGGCAUGUUAAAGGAUAUAGCAGGUGAUACAAGAAAGUGAGUGAUGUUUAUGUAGAUGAUGAUAUGUUAGAAGGUUAACAAAACC [abcdefghijklm]	597	475	620	529	374	–	–	–	–	–	–
GGCCGCAAGGCGGGCCGGCCCACUCCGGAAGGAGCGCCCGCAAGGGCAGGUAGGUCGCCGGAGUGAUGUUCCGGUGGCCGGCCCG [#2 Exclusion - Arginine A Attempt #2 (Inspired by Omei)]	140	136	133	93.8	130	–	–	–	–	–	–
UGAUAGGACAGAAGGAGCGGUAGUGAUGUUGCCAAAAGAAUAAGGUGUCAAAAGACACCCUGCCAGGUAGGUCGCUGUCCUAUCU	139	189	144	188	120	–	–	–	–	–	–
AUGUAUGAAUUAGGAUAUCGUUAGCCUUGCAUAUAUAUGAUAAAUGGAUAUGUCGUAGUGAUGUUACGAGAAGGAGUGUGGAGUA [KL-XFMN-B5]	44.6	50.5	38.9	63.4	30.2	–	–	–	–	–	–
AGGUGAGCCGUCAGGAUAUGCGUUCCGUAGGGUCAGCAGAAGGGACAUGAGGAUCACCCAUGUUUCGCACGUGG [Veraxedi] (Eterna round: R96, puzzle: Brourd's mod of Exclusion 4)	–	–	–	–	–	76.5	23.5	31.5	–	–	–
AUGAUACAUGAGGAUCACCCAUGUUAGGAUAUACGCAUGCAUGCAUGCAUGCAUGCAAGUAGAAGGAACCAUGC [Design #2] (Eterna round: R97, puzzle: Exclusion 1)	–	–	–	–	–	56.8	–	48.2	–	–	–
AAGAACGUAGGAUAUACAUGAGGAUCACCCAUGUGAGGAAGGAGUAGGAAGUGUGGAAGUAGAAGGACGGAGAG [JR_Exclu3_Sub076] (puzzle: Exclusion 3)	–	–	–	–	–	–	–	–	31.5	35.4	33.8
AGCGAAUGAGGAUAUUAUCUCACCUACAUGAGGAUCACCCAUGUGGUCGCACCUGGCGAGUGAGAAGGCAUUCGGA [Eternabot (Original) Solution 41] (Eterna round: R97, puzzle: Exclusion 5)	–	–	–	–	–	112	–	49.8	–	–	–
AGCCCUAAUGUCAGGAUAUGCAUCCUUAAUGGACGGCAGAAGGGACAUGAGGAUCACCCAUGUAAAUAGAAAUU [Direised] (puzzle: Brourd's mod of Exclusion 4)	–	–	–	–	–	–	–	–	–	31.4	–
AAUGAUUGACGAGGAUAUUGUGGUAGAUCACGACGAGAAGGCGUUUGUCACAUGAGGAUCACCCAUGUGAGCCUUGUGGAUAGA [Ex NG1 #75] (Eterna round: R96, puzzle: Exclusion NG 1)	–	–	–	–	–	160	20.1	30.9	–	–	–
CCCACAAGCUUUUUGCUCGACAUGAGGAUCACCCAUGUAAAAUGGGUAAAUUUAAAUUUAAAUUUAUUUAAAUUGGG [-18.1, -41.9 kcal, A 34%] (Eterna round: R97, puzzle: Sensor, turn-off variant 1)	–	–	–	–	–	80.9	–	102	–	–	–
ACAAGCUUUUUGCUCGGCUACAUGAGGAUCACCCAUGUUGUGUGUUAUUGUUUUUGAUUGUUCGUGCGCAGCAGGUA [JR_SV3TOV1_Sub073] (puzzle: Sensor v3, turn-off variant 1)	–	–	–	–	–	–	–	–	71	29.4	112
UGCCUACAUGAGGAUCACCCAUGUGAGGAUAUCCUGCGAGGAUCAAAAGAUCCUCGUGGGAGAAGGCGCCUGGA [Omei Ex1 B5] (Eterna round: R97, puzzle: Exclusion 1)	–	–	–	–	–	19.9	–	16.2	–	–	–
GAUCCUUCUGUUAGGAUAUGCUUCGGGCUUCCGCUGCAGAAGGAACAUGAGGAUCACCCAUGUCAAAUAAAAUC [JL-BMX4-4.38 ViennaUCT mod] (Eterna round: R97, puzzle: Brourd's mod of Exclusion 4)	–	–	–	–	–	48.5	–	17.8	–	–	–
AAGAAGAAACAAGCUUUUUGCACGUCAUAUAGUGACGCAACAUGAGGAUCACCCAUGUAUAGGGUGGGAAAGGAUAG [JR_SV3TOV2_Sub047] (puzzle: Sensor v3, turn-off variant 2)	–	–	–	–	–	–	–	–	338	70	423
ACAACAAGCUUUUUGUUCGUAGAACAUGAUGCUCUAGUCACAUGAGGAUCACCCAUGUCAACCAGAUAGAUAGUUGA [JR_SV3TOV2_Sub063] (puzzle: Sensor v3, turn-off variant 2)	–	–	–	–	–	–	–	–	53.1	143	50.4
CUGGUCCGAGGAUAUAUGAUGUGAAACAUGAGGAUCACCCAUGUAAUAUUAUGGAUGUAAAUAGAAGGCGGACUAG [JL-ex5-3.08] (puzzle: Exclusion 5)	–	–	–	–	–	–	–	–	37.8	33.9	74.2
GGAUAUCGAGGAUAUACAUGAGGAUCACCCAUGUUGAAUCCGUGGGAUGGCCGACGAUGUAGAAGGUGACUCAU [Eternabot (Original) Solution 27] (Eterna round: R97, puzzle: Exclusion 3)	–	–	–	–	–	134	–	232	–	–	–
